Measurements reported in PMC9482650, “Quantitative fragmentomics allow affinity mapping of interactomes” (Nature Communications, 2022).

Legend:
Assay in all cases: holdup assay
Design in all cases: key: below the threshold = too weak to quantify, mostly under pKd 3.1 to 4
Conditions in all cases: plain residues with an end cap or a label only (N-terminal biotin on a linker: ttds)
[1] = target: T1, CNKSR1, Q969H4
T1 sequence (Q969H4 191-295, limits assumed, looked up): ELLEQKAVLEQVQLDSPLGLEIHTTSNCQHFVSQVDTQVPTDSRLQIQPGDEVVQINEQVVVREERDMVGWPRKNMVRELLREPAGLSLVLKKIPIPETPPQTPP

[2] = target: DLG5_2, Q8TDM6
DLG5_2, Q8TDM6, sequence (Q8TDM6 714-800): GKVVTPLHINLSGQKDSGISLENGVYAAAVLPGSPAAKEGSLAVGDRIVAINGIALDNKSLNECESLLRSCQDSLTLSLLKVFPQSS

[3] = target: T2, INTU, Q9ULD6
T2 sequence (Q9ULD6 180-273, limits assumed, looked up): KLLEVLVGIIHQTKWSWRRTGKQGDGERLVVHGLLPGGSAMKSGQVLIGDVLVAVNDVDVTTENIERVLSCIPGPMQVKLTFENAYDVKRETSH

[4] = target: LMO7, Q8WWI1
LMO7, Q8WWI1, sequence (Q8WWI1 1037-1138): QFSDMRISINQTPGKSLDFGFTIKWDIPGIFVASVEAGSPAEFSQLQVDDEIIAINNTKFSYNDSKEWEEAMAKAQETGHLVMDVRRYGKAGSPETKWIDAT

[5] = target: MAGI3_6, Q5TCQ9
MAGI3_6, Q5TCQ9, sequence (Q5TCQ9 1014-1103): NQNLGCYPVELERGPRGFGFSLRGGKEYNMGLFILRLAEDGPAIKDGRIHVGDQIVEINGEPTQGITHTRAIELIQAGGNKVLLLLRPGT

[6] = target: T3, MPDZ_6, O75970
T3 sequence (O75970 1003-1099, limits assumed, looked up): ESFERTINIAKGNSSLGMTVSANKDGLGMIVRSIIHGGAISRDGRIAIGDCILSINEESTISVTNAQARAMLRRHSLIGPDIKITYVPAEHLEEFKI

[7] = target: T4, NHERF1_2, O14745
T4 sequence (O14745 149-244, limits assumed, looked up): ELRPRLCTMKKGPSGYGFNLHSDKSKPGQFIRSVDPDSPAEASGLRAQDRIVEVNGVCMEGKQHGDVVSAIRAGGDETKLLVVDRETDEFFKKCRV

[8] = target: NHERF2_1, Q15599
NHERF2_1, Q15599, sequence (Q15599 9-91): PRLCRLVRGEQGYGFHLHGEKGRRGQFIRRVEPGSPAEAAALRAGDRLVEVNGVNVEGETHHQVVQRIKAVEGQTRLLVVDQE

[9] = target: NHERF4_3, Q86UT5
NHERF4_3, Q86UT5, sequence (Q86UT5 325-412): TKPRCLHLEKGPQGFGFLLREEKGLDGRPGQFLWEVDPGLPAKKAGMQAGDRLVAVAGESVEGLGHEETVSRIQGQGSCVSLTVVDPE

[10] = target: O43166
[11] = target: T5, PDZD11, Q5EBL8
T5 sequence (Q5EBL8 42-139, limits assumed, looked up): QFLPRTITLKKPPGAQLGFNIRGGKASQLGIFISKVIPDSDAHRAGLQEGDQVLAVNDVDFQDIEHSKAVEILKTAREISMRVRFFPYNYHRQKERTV

[12] = target: T6, PDZD2_5, O15018
T6 sequence (O15018 2617-2716, limits assumed, looked up): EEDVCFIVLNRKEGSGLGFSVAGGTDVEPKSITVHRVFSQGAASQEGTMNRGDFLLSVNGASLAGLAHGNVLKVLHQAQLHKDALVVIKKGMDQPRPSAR

[13] = target: T7, PDZD4, Q76G19
T7 sequence (Q76G19 125-224, limits assumed, looked up): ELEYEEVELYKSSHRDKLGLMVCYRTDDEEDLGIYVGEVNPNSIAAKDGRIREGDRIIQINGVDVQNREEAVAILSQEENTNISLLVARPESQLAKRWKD

[14] = target: T8, PDZRN3_2, Q9UPQ7
T8 sequence (Q9UPQ7 414-513, limits assumed, looked up): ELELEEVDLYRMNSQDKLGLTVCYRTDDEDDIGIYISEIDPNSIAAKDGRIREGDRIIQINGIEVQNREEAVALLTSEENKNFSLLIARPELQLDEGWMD

[15] = target: Q12923
[16] = target: Q5TCQ9
[17] = target: Q70Z35
[18] = target: Q96JY6
[19] = target: Q96SB3
[20] = target: Q9H190
[21] = target: RIMS1, Q86UR5
RIMS1, Q86UR5, sequence (Q86UR5 584-692): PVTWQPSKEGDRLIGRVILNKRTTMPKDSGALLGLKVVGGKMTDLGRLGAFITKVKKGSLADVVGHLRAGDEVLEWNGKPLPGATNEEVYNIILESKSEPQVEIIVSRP

[22] = target: SCRIB_4, Q14160
SCRIB_4, Q14160, sequence (Q14160 1095-1204): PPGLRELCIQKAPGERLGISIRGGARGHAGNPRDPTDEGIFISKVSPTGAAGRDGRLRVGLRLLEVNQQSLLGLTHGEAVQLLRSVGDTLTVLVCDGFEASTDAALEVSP

[23] = target: T9, SHANK3, Q9BYB0
T9 sequence (Q9BYB0 641-750, limits assumed, looked up): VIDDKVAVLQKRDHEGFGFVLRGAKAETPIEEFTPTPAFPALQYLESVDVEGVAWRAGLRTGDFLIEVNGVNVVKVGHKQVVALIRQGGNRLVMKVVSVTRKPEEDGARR

[24] = target: T10, TJP3_1, O95049
T10 sequence (O95049 6-103, limits assumed, looked up): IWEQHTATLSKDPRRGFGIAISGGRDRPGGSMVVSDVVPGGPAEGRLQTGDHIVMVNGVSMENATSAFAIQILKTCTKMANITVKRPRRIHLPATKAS

[25] = target: T11, TJP3_2, O95049
T11 sequence (O95049 190-282, limits assumed, looked up): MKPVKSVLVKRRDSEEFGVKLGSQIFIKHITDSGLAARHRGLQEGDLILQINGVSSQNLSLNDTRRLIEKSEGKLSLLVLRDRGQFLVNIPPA

[26] = target: T12, USH1C_3, Q9Y6N9
T12 sequence (Q9Y6N9 447-547, limits assumed, looked up): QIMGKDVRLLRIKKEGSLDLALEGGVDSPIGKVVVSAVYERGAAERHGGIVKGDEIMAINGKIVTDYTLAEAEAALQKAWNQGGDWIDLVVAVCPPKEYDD

pKd [1]: below the threshold | pKd [2]: below the threshold | pKd [3]: below the threshold | pKd [4]: below the threshold | pKd [5]: 4.71 | pKd [6]: below the threshold | pKd [7]: below the threshold | pKd [8]: below the threshold | pKd [9]: below the threshold | pKd [10]: below the threshold | pKd [11]: below the threshold | pKd [12]: below the threshold | pKd [13]: below the threshold | pKd [14]: below the threshold | pKd [15]: below the threshold | pKd [16]: below the threshold | pKd [17]: below the threshold | pKd [18]: below the threshold | pKd [19]: below the threshold | pKd [20]: below the threshold | pKd [21]: below the threshold | pKd [22]: below the threshold | pKd [23]: below the threshold | pKd [24]: below the threshold | pKd [25]: below the threshold | pKd [26]: below the threshold
B1: FZD7, O75084 (peptide)
chain: SHSSKGETAV
